Substitutions are numbered along the chain they refer to. Numbers in names are those of the source.
Experiments:
[1] = Km and kcat of recombinant HCPB against Hipp-Arg, spectrophotometric assay; format: biochemical; details: Hipp-Arg 0.75-[…]; CPB 1 μg/ml; 37° C.; pH 7.5
Procedure: Purified human CPB, produced as described in Reference Example 12, was assayed for its ability to convert hippuryl-L-arginine (Hipp-Arg; Sigma) to hippuric acid using a spectrophotometric assay.
(§1) Measurements were carried out at 37° C. in 0.25 mM Tris HCl buffer, pH 7.5 using 1 cm path length cuvettes in a total volume of 1.0 ml using a Perkin Elmer Lambda 2 spectrophotometer. Km and Vmax values were calculated using the ENZFITTER software programme (Biosoft, Perkin Elmer). Kcat was calculated from Vmax by dividing by the enzyme concentration in the reaction mixture.

[2] = tested on: LoVo colorectal tumour cells; details: 100 μg enzyme added to assay wells containing glutamic acid prodrug
[3] = Conversion of Hipp-Arg to hippuric acid by mutant and native human CPB, HPLC assay (Example 6); format: biochemical; details: 5 hr at 37° C.; 4 μg enzyme
Procedure: (§2) Purified mutants of human CPB (D253K and D253R; Examples 1-3) and native human CPB, produced as described in Reference Example 12, were assayed for their ability to convert either hippuryl-L-aspartic acid (Hipp-Asp—Reference Example 2), hippuryl-L-glutamic acid (Hipp-Glu—Reference Example 1) or hippuryl-L-arginine (Sigma Chemical Company—cat no. H6625) to hippuric acid using a HPLC based assay.
(§3) The reaction mixture (250 μl) contained 4 μg human CPB (native or mutant) and 0.5 mM Hipp-Asp or Hipp-Glu in 0.025 M Tris-HCL, pH 7.5. Samples were incubated for 5 hr at 37° C. The reactions were terminated by the addition of 250 μl of 80% methanol, 20% distilled water, 0.2% trifluoro acetic acid and the amount of hippuric acid generated was quantified by HPLC.
(§4) HPLC analysis was carried out using a Hewlett Packard 1090 Series 11 (with diode array) HPLC system. Samples (50 μl) were injected onto a Hichrom Hi-RPB column (25 cm) and separated using a mobile phase of 40% methanol, 60% distilled water, 0.1% trifluoro acetic acid at a flow rate of 1 ml/min. The amount of product (hippuric acid) produced was determined from calibration curves generated with known amounts of hippuric acid (Sigma-H6375). The results are shown in Table 1 and are expressed as the percentage conversion of substrate into product in 5 hr at 37° C. with 4 μg enzyme.

[4] = Conversion of Hipp-Asp to hippuric acid by mutant and native human CPB, HPLC assay (Example 6); format: biochemical; details: 5 hr at 37° C.; 4 μg enzyme; 0.5 mM substrate
Procedure: as §2, §3, §4

[5] = Conversion of Hipp-Glu to hippuric acid by mutant and native human CPB, HPLC assay (Example 6); format: biochemical; details: 5 hr at 37° C.; 4 μg enzyme; 0.5 mM substrate
Procedure: as §2, §3, §4

[6] = HCPB activity of COS-7 cell supernatants against Hipp-Arg (5 h assay); format: biochemical; details: COS-7 cell supernatant 250 μl, co-transfection with prepro sequence
Procedure: as §1
For expression in eukaryotic cells, vectors containing genes capable of expressing preHCPB and the prepro sequence were cotransfected into COS-7 cells. COS cells are an African green monkey kidney cell line, CV-1, transformed with an origin-defective SV40 virus and have been widely used for short-term transient expression of a variety of proteins because of their capacity to replicate circular plasmids containing an SV40 origin of replication to very high copy number. There are two widely available COS cell clones, COS-1 and COS-7. The basic methodology for transfection of COS cells is described by Bebbington in Methods: A Companion to Methods in Enzymology (1991) 2, p. 141. […] Cell supernatants (250 μl) were analysed for HCPB activity against Hipp-Arg (5 h assay) as described in Reference Example 3. […]

[7] = Km and kcat of HCPB mutants with Hipp-Glu (Example 7); format: biochemical; details: Hipp-Glu 0.25-8.0 mM; pH 7.5; 5 h at 37° C.
Procedure: Hipp-Glu and Hipp-Asp were diluted in range 0.25-8.0 mM and 0.25-5.0 mM respectively in 0.025 M Tris-HCL buffer, pH 7.5. Where necessary substrate samples were adjusted to pH 7.5 with 1M NaOH.
Samples were incubated for 5 h at 37° C. Reactions were terminated by the addition of 500 μl methanol/distilled water (80/20) containing 0.2% TFA. The amount of hippuric acid produced was quantified by HPLC as described in Example 6.
Km and Vmax values were calculated using the ENZFITTER software programme (Biosoft, Perkin Elmer).

[8] = Conversion of Hipp-Arg by purified HCPB mutants, 30 minutes, HPLC (Example 17); format: biochemical; details: 0.5 mM substrate, 30 minutes at 37° C.
Procedure: (§5) Purified mutants of human CPB (D253K; [G251K,D253R]; [G251N,D253R]; [I201S,D253K]; [G251N,D253K]; [Q54R,D145A,D253K]; [G251T,D253K]; [G251S,D253K]; [A248N,G251N,D253K]; [A248S,G251N,D253K] and [S205N,G251N,D253K]—described in Examples 3, 12, 13, 16, 28, 30, 31, 32 and 33) were assayed for their ability to convert hippuryl-L-glutamic acid (Hipp-Glu—Reference Example 1), hippuryl-L-aspartic acid (Hipp-Asp—Reference Example 2) and hippuryl-L-arginine (Sigma Chemical Company—cat no. H6625) to hippuric acid using a HPLC based assay similar to that described in Example 6.
(§6) Samples were incubated for 30 minutes at 37° C. The reactions were terminated by the addition of 500 μl of 40% methanol, 60% distilled water, 0.2% trifluoro acetic acid and the amount of hippuric acid generated was quantitated by HPLC as described in Example 6 but using a mobile phase of 20% methanol, 80% 50 mM phosphate buffer, pH 6.5. Hippuric acid was detected at 230 nm. The results are shown in Table 5 and are expressed as the percentage conversion of substrate into product in 30 minutes at 37° C.

[9] = Conversion of prodrug of Example 24 to drug of Example 25 by HCPB mutants, HPLC (Example 20); format: biochemical; details: enzyme 1.5 μg/ml; 0.5 mM prodrug of Example 24; 5 minutes at 37° C.
Procedure: The reaction was stopped by adding MeCN (500 μl) plus 0.2% Trifluoroacetic acid. The amount of drug produced was then quantified by HPLC.
HPLC separation was carried out as described in Example 6 except that a mobile phase of 70% MeCN, 30% distilled water and 0.1% trifluoroacetic acid was used to achieve separation of prodrug (retention time 3.8 minutes) and drug (retention time 4.9 minutes) and the compounds were detected at 260 nm. The amount of drug produced was quantified from calibration curves generated with known amounts of drug.
The amount of [Q54R,D145A,D253K]HCPB and [G251T,D253K]HCPB mutants was reduced to 0.75 μg in the reaction mixture.

[10] = Conversion of Hipp-Glu by purified HCPB mutants, 30 minutes, HPLC (Example 17); format: biochemical; details: 0.5 mM substrate, 30 minutes at 37° C.
Procedure: as §5, §6

[11] = Conversion of Hipp-Glu by periplasmic shockate of HCPB mutants, 24 h (Example 18); format: biochemical; details: for Hipp-Glu (% conversion): 24 h at 37° C.
Procedure: (§7) The activity of [G251T,D253K]HCPB was measured using the assay conditions described in Example 17 but using either 50 μl of a neat or 1 in 10 or 1 in 100 dilution of [G251T,D253K]HCPB crude E.coli periplasmic shockate (shockate) sample in place of purified enzyme. Samples were incubated for 24 h at 37° C. […] For other HCPB mutants, the reaction volume was 250 μl and contained 125 μl of neat shockate or 1 in 50 dilution of shockate. The shockate samples were prepared as described in Example 16. The amount of Hippuric acid produced in 24 h was quantified by HPLC as described in Example 17 and the results are shown in Table 6 and are expressed as the percentage conversion of substrate into product in 24 h at 37° C.

[12] = Conversion of Hipp-Arg by periplasmic shockate of HCPB mutants, 24 h (Example 18); format: biochemical; details: 24 h at 37° C.
Procedure: as §7

[13] = Conversion of Hipp-Asp by periplasmic shockate of HCPB mutants, 24 h (Example 18); format: biochemical; details: 24 h at 37° C.
Procedure: as §7

[14] = Conversion of Hipp-Asp by purified HCPB mutants, 30 minutes, HPLC (Example 17); format: biochemical; details: 0.5 mM substrate, 30 minutes at 37° C.
Procedure: as §5, §6

[15] = shockate concentration in reaction mixture 1 %
[16] = shockate concentration in reaction mixture 10 %

B1: Native HCPB: purified recombinant native human pancreatic carboxypeptidase B (protein, UniProt P15086 111-417, looked up)
Carboxypeptidase B: ATGHSYEKYNKWETIEAWTQQVATENPALISRSVIGTTFEGRAIYLLKVGKAGQNKPAIFMDCGFHAREWISPAFCQWFVREAVRTYGREIQVTELLDKLDFYVLPVLNIDGYIYTWTKSRFWRKTRSTHTGSSCIGTDPNRNFDAGWCEIGASRNPCDETYCGPAAESEKETKALADFIRNKLSSIKAYLTIHSYSQMMIYPYSYAYKLGENNAELNALAKATVKELASLHGTKYTYGPGATTIYPAAGGSDDWAYDQGIRYSFTFELRDTGRYGFLLPESQIRATCEETFLAIKYVASYVLEHLY
Km [1]: 180 µM | kcat against Hipp-Arg [1]: 65 s⁻¹ | cytotoxicity of the glutamic acid prodrug with enzyme added [2]: does not significantly enhance | Hipp-Arg (% conversion to Hippuric acid) [3]: 100% | Hipp-Asp (% conversion to Hippuric acid) [4]: 0% | Hipp-Glu (% conversion to Hippuric acid) [5]: 0%

B2: HCPB: mature HCPB in supernatant of COS-7 cells co-transfected with preHCPB and prepro sequence plasmids (protein, UniProt P15086 111-417, looked up)
Carboxypeptidase B: B1 Carboxypeptidase B
Hipp-Arg substrate hydrolysed [6]: 61%

B3: [G251T,D253K]: HCPB mutant with G251T and D253K, (His)6-c-myc tag (protein, UniProt P15086 111-417, looked up, variant G251T D253K)
Carboxypeptidase B: B1 Carboxypeptidase B with G251T, D253K
modifications: (His)6-c-myc tag
Km [7]: 1100 µM | kcat, Hipp-Glu [7]: 75 s⁻¹ | Hipp-Arg (% conversion) ([8]; enzyme 0.02 μg/ml): 0% | Hipp-Arg (% conversion) ([8]; enzyme 25 μg/ml): 5.2% | Prodrug Hydrolysis (%) [9]: 36.0% | Hipp-Glu (% conversion) ([10]; enzyme 0.02 μg/ml): 8.2% | Hipp-Glu (% conversion) ([10]; enzyme 25 μg/ml): 100% | Hipp-Glu (% conversion) ([11]; shockate concentration in reaction mixture 0.1 %): 60% | Hipp-Glu (% conversion) [11, 15]: 93% | Hipp-Glu (% conversion) [11, 16]: 100% | fold more active against Hipp-Glu compared to Hipp-Arg ([11]; shockate samples, 24 h): over 900 fold | fold more active than D253K at converting Hipp-Glu to hippuric acid ([11]; shockate samples, 24 h): at least 50 fold | Hipp-Arg (% conversion) [12, 15]: 0.1% | Hipp-Arg (% conversion) [12, 16]: 0.8% | Hipp-Asp (% conversion) [13, 15]: 0% | Hipp-Asp (% conversion) [13, 16]: 2.6% | Hipp-Asp (% conversion) ([14]; enzyme 0.02 μg/ml): 0% | Hipp-Asp (% conversion) ([14]; enzyme 25 μg/ml): 14%
